Target: FITC-labeled bovine type-1 collagen (Chondrex, Cat# 4001) (UniProt P02453)
Sequence (P02453 162-1217, chain 1 of 2): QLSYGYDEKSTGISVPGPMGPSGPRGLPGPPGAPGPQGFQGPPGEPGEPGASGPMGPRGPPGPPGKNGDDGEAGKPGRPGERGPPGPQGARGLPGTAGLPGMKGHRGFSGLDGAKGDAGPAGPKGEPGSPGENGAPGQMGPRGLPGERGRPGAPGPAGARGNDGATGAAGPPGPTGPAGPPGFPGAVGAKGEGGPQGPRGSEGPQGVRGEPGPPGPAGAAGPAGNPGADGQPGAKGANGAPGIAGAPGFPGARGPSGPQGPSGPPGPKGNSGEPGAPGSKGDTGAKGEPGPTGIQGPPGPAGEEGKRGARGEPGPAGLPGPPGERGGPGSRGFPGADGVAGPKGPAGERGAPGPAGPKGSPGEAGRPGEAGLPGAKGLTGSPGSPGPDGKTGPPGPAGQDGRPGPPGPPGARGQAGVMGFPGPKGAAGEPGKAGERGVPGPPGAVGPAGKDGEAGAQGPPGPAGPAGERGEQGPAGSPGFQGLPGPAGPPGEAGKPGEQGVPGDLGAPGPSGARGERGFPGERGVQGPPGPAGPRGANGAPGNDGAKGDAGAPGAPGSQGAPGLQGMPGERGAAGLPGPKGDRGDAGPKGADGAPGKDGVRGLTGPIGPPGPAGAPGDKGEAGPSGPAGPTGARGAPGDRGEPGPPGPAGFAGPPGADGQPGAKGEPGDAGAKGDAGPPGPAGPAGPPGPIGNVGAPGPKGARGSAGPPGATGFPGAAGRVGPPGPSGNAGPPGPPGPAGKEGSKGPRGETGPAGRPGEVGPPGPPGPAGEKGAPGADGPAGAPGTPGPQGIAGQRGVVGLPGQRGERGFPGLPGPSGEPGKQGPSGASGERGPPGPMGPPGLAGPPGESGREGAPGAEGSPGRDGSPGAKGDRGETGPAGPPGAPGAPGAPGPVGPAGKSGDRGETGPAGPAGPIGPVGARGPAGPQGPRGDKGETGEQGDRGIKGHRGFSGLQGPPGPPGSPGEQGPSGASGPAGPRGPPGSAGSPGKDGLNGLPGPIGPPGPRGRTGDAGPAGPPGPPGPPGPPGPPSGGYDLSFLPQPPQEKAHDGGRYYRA
Sequence (P02453 other isoform, or with tags, fused parts or gaps, chain 2 of 2): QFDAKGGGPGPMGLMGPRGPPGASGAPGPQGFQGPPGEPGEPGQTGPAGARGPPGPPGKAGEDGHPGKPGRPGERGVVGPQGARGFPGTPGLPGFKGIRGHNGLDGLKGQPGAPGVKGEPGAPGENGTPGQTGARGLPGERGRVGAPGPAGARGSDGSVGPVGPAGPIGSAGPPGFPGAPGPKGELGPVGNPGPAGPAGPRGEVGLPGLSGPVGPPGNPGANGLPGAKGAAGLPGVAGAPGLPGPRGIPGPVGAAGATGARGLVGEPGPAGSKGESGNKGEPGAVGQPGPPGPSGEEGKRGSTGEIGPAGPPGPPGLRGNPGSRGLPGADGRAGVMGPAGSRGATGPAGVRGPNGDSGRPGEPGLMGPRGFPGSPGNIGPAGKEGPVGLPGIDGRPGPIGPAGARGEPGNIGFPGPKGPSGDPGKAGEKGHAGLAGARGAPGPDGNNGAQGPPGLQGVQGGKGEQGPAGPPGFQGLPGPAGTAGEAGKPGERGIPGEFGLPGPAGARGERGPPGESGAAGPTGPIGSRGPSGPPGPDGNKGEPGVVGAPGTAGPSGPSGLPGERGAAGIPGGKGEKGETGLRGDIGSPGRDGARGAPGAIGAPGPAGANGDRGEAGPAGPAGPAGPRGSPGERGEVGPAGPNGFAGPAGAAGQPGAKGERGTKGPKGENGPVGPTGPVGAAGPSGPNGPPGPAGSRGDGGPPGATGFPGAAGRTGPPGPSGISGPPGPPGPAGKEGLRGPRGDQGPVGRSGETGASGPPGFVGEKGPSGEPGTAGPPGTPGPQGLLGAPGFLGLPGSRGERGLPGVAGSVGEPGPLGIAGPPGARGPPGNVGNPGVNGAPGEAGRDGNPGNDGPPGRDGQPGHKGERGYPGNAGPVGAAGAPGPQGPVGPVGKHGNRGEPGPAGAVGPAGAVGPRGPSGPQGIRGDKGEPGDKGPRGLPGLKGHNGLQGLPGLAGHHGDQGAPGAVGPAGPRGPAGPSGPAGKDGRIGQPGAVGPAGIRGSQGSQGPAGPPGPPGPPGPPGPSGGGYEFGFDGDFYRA

trypsin (TPCK-treated)
collagen degradation on SDS PAGE: did not show degradation of type-1 collagen

— patent publication US20190233808
